Here are results for two molecules from US20180312579A1 (Genentech, published 2018).

Assay [1] has as its target T1, human RSPO2 with C-terminal HA tag, stably expressed in 293 cells (human, UniProt Q6UXX9 22-243).
T1 construct: Whole open reading frame was expressed from a lentiviral vector in HEK-293 cells sorted for high, medium or low expression; formalin-fixed paraffin-embedded pellets; also called hRSPO2; RSPO2 Hi
The assay is described as follows: IHC, FFPE 293 cell pellet, RSPO2 Hi; - = not significant staining.
Target sequence in this assay (Q6UXX9 other isoform, or with tags, fused parts or gaps): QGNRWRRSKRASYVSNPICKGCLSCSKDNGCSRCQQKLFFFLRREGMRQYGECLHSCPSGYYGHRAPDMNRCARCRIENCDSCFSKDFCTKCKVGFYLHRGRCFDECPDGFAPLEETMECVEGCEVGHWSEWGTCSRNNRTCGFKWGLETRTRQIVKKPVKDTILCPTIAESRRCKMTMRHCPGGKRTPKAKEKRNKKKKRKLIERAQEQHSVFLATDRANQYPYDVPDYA

Assay [2] has as its target T2, human RSPO4 with C-terminal HA tag, stably expressed in 293 cells (human, UniProt Q2I0M5 20-234).
T2 construct: also called hRSPO4; RSPO4 Hi
The assay is described as follows: IHC, FFPE 293 cell pellet, RSPO4 Hi; - = not significant staining.

Assay [3] has as its target T3, human RSPO1 with C-terminal HA tag, stably expressed in 293 cells (human, UniProt Q2MKA7 21-263).
T3 construct: also called hRSPO1; RSPO1 Hi
The assay is described as follows: IHC, FFPE 293 cell pellet, RSPO1 Hi; - = not significant staining.

The target in the next assay is T4, cynomolgus RSPO3 (cynomolgus, UniProt A0A2K5UTQ7 22-273).
T4 sequence: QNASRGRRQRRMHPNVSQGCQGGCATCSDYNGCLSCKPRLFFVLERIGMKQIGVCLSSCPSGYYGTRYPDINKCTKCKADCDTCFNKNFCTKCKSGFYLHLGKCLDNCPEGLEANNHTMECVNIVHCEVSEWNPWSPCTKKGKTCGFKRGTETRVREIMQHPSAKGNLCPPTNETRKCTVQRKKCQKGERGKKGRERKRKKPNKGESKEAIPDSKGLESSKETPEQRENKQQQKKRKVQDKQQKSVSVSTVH
The assay is described as follows: cell-based or functional assay.

The next assay deals with mouse RSPO2 (mouse, UniProt Q8BFU0 22-205, limits assumed). The assay is described as follows: cell-based or functional assay.
mouse RSPO2, sequence (Q8BFU0 22-205 limits assumed): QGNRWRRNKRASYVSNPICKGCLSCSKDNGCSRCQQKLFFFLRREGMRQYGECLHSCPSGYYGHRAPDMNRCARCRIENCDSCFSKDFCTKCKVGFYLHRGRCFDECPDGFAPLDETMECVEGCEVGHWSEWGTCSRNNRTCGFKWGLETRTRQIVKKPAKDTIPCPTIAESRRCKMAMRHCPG
The target in a further assay is T5, mouse RSPO3 (mouse, UniProt Q2TJ95 22-277, limits assumed).
T5 sequence (looked up): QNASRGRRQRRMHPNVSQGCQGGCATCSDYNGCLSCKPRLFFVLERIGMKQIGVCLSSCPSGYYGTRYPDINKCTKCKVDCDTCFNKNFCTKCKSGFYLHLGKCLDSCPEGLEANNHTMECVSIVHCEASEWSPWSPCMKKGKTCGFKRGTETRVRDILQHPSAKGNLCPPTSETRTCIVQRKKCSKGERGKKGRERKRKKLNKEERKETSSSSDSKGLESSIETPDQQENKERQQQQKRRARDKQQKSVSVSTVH
The experiment in a line: cell-based or functional assay.

The target of a further assay is cynomolgus RSPO2 (cynomolgus, UniProt G7PCH9 22-243). The assay is described as follows: cell-based or functional assay.
The next assay deals with T6, recombinant human RSPO3 (human, UniProt Q9BXY4 22-272).
T6 sequence: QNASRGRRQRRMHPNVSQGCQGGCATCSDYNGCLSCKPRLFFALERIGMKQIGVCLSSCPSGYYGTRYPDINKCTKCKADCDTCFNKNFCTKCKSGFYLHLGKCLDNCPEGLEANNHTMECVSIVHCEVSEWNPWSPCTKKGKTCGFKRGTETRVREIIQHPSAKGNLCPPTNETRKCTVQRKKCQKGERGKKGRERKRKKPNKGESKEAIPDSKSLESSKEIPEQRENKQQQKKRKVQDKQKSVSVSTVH
The assay is described as follows: cell-based or functional assay.

A further assay has as its target recombinant human RSPO2 (human, UniProt Q6UXX9 22-243). The experiment in a line: cell-based or functional assay.
Assay [4] concerns the target T7, FLAG-tagged human RSPO3 (Genentech) (human, UniProt Q9BXY4 22-272).
T7 construct: also called hRSPO3; RSPO3 coated plates; not shown: FLAG tag
T7 sequence: T6 sequence
The assay is described as follows: competitive binding ELISA: antibody titrated against LGR4-Fc (LGR4-ECD) binding to plate-coated hRSPO3; signal = bound LGR4-Fc, OD(450/630)/OD no antibody. In short, it runs like this:
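Plates coated with 0.5 μg/ml hRSPO2 or hRSPO3 at pH 9.6 were incubated 2 h at room temperature with antibody (0.078-10 […] dilutions) plus 0.1 μg/ml LGR4-Fc. Bound LGR4-Fc was detected by HRP anti-human Fc and TMB, with absorbance read at 450 nm.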
For orientation: ELISA stands for enzyme-linked immunosorbent assay.

Assay [5] has as its target T7, FLAG-tagged human RSPO3 (Genentech). The experiment in a line: competitive binding ELISA: titrated against biotinylated RNF43-Flag (RNF43-ECD) binding to plate-coated hRSPO3; signal = bound RNF43, normalized OD.
Assay [6] addresses T8, human RSPO3 with C-terminal HA tag, stably expressed in 293 cells (human, UniProt Q9BXY4 22-272).
T8 construct: Whole open reading frame expressed in HEK-293 cells (high, medium, low); FFPE pellets; also called hRSPO3; RSPO3 Hi
T8 sequence: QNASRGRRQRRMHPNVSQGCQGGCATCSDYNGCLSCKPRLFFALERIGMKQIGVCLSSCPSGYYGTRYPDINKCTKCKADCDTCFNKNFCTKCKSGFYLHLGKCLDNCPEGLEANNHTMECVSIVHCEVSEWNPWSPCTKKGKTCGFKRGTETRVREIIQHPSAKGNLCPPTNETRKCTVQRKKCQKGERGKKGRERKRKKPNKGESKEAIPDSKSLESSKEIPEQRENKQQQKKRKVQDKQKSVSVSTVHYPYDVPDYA
The assay is described as follows: IHC, FFPE 293 cell pellet, RSPO3 Med.

The target of assay [7] is T8, human RSPO3 with C-terminal HA tag, …. The experiment in a line: IHC, FFPE 293 cell pellet, RSPO3 Low.
The target is the same in assay [8]. The experiment in a line: IHC, FFPE 293 cell pellet, RSPO3 Hi.
Assay [9] addresses T1, human RSPO2 with C-terminal HA tag, …. The assay is described as follows: IHC, FFPE 293 cell pellet, RSPO2 Hi.
Assay [10] concerns the target T9, human RSPO2 L186P variant (human, UniProt Q6UXX9 22-243).
T9 chain: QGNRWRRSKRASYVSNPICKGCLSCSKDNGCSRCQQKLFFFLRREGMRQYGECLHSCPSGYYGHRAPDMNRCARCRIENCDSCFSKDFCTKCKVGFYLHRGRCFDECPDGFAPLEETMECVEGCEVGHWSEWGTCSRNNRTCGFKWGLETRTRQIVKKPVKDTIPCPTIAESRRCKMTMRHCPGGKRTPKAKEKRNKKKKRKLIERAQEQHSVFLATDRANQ
The experiment in a line: cell-based or functional assay.

The target in assay [11] is T1, human RSPO2 with C-terminal HA tag, …. The experiment in a line: IHC, FFPE 293 cell pellet, RSPO2 Low.
For assay [12], the target named is T10, FLAG-tagged human RSPO2 (Genentech) (human, UniProt Q6UXX9 22-243).
T10 construct: also called hRSPO2; RSPO2 coated plates; not shown: FLAG tag
The experiment in a line: competitive binding ELISA: antibody titrated against LGR4-Fc (LGR4-ECD) binding to plate-coated hRSPO2; signal = bound LGR4-Fc, OD(450/630)/OD no antibody. On the procedure: To measure the activity of anti-RSPO antibodies in blocking the binding of LGR4 and -5 ECDs to RSPOs, MaxiSorp 384-well microwell plates (Thermo Scientific Nunc, Roskilde, Denmark) were coated with 25 ul/well of 0.5 μg/ml hRSPO2 or hRSPO3 (Genentech) in 50 mM carbonate buffer, pH 9.6, overnight at 4° C. Plates were blocked with at 80 ul/well of 0.5% bovine serum albumin, 15 parts per million Proclin 300 in phosphate buffered saline (PBS), pH 7.4, for 1 hour. Serially diluted anti-RSPO antibodies ([…] in […] serial dilution plus buffer blank) containing 0.1 μg/ml LGR4-Fc or 0.015 μg/ml LGR5-Fc in assay buffer (0.5% BSA, 0.05% polysorbate 20, 15 parts per million Proclin 300 in PBS) were added to the plates at 25 ul/well. After a 2-hour incubation, LGR4-Fc and LGR5-Fc bound to the plates were detected using peroxidase labeled goat F(ab′)2 anti-human Fc (Jackson ImmunoResearch, West Grove, Pa.). After a 1 hour incubation, the substrate 3,3′,5,5′-tetramethyl benzidine (Moss Inc., Pasadena, Md.) was added to the plates and the reaction was stopped by adding 1 M phosphoric acid. Plates were washed with PBS, pH 7.4, containing 0.05% tween 20, between steps and all the incubation steps following the coating step were performed at room temperature on an orbital shaker. Absorbance was read at 450 nm on a multiskan Ascent reader (Thermo Scientific, Hudson, N.H.).

For assay [13], the target named is T10, FLAG-tagged human RSPO2 (Genentech). The assay is described as follows: competitive binding ELISA: titrated against biotinylated RNF43-Flag (RNF43-ECD) binding to plate-coated hRSPO2; signal = bound RNF43, normalized OD.
Assay [14] addresses T8, human RSPO3 with C-terminal HA tag, …. The experiment in a line: IHC, FFPE 293 cell pellet, RSPO3 Hi; - = not significant staining.
The target of assay [15] is T1, human RSPO2 with C-terminal HA tag, …. The experiment in a line: IHC, FFPE 293 cell pellet, RSPO2 Med.

T2 sequence (Q2I0M5 other isoform, or with tags, fused parts or gaps limits assumed): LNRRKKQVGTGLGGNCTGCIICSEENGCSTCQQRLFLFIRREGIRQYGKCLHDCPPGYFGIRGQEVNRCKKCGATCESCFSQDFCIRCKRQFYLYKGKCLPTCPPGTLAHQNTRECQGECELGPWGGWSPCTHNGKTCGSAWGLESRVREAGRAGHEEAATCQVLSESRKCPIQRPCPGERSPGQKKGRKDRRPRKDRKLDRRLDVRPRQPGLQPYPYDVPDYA
T3 sequence (Q2MKA7 other isoform, or with tags, fused parts or gaps limits assumed): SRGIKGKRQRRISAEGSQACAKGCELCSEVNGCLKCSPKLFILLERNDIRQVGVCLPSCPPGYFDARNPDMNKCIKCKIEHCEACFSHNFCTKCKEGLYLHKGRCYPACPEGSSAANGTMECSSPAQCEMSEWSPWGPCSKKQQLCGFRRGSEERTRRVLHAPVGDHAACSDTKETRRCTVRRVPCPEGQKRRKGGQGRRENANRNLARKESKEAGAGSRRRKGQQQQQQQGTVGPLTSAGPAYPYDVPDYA

B1: 5E11 (antibody, V domains shown)
VH: QVQLKQSGPGLVQPSQSLSITCTVSGFSLSSYAVHWVRQSPGEGLEWLGVIWSGGSTDYNAAFISRMSITKDNSKSQVFFKMNSLQADDTAIYFCARNDGYYYFDYWGQGTTLTVSS
VL: DIVMTQSTSSLSASLGDRVTISCRASQDISNYLNWYQQKPDGTVKLLIYYTSRLHSGVPSRFSGSGSGTDYSLTISNLEKEDVATYFCQHGDTLPPTFGGGTKLEIK
notes: also called monoclonal antibody 5E11
For B1, the binding result in assay [1], in assay [2] and in [3] was “no binding” each time. In addition, the “IC50, WNT luciferase reporter, bivalent antibody” value in the assay with cynomolgus RSPO3 is 0.31 nM; with mouse RSPO2 it was more than 500 nM; in the assay with mouse RSPO3 it was 0.5 nM; in the assay with cynomolgus RSPO2, more than 500 nM; with recombinant human RSPO3, 0.09 nM; with recombinant human RSPO2, more than 500 nM. The “IC50 (read off the curve)” value in assay [4] is approximately 0.1 µg/mL; in assay [5] it was approximately 0.08 µg/mL. In addition, the “percentage of cells staining” value in assay [6] came out at 80%; in [7] it was 20%; in assay [8], 90%.

B2: 1A1 (antibody, V domains shown)
VH: EVQLVESGGGLVKPEGSLKLSCVASGFTFSDYFMSWVRQAPGQGLEWVAHIYTKTYNYATYYSGSVKGRFSISRDDSRNMVYLQMNNLRTEDTATYYCTTDEDWYFDFWGQGTQVTVSS
VL: QPVLTQSPSVSASLGASVKLTCTLSSQHSTNYIEWYQQHPDKSPKFLMQVRDGSHSKGDGTPDRFSGSSSGAHRYLSISNLQLEDEAIYYCGLSDVSLYLFGSGTQLTLL
notes: also called monoclonal antibody 1A1
As for B2, the binding result in [2], in assay [3] and in assay [14] was “no binding” each time. Also, the “IC50, WNT luciferase reporter, bivalent antibody” value in the assay with cynomolgus RSPO3 is more than 500 nM; with mouse RSPO2 it was 0.0022 nM; with mouse RSPO3, more than 500 nM; with cynomolgus RSPO2 it was 0.0005 nM; in the assay with recombinant human RSPO3, more than 500 nM; in the assay with recombinant human RSPO2, 0.0004 nM. In addition, the “percentage of cells staining” value in [9] came to 80%; in [11], 30%; in assay [15], 40%. Also, the “IC50 (read off the curve), WNT reporter RLU stimulated by 38 pM rhRSPO2 L186P” value in assay [10] is approximately 0.6 pM. The EC50 (read off the curve) (as a rule, the concentration at which the effect is half-maximal) in [12] is approximately 0.07 µg/mL. Also, the “IC50 (read off the curve)” value in assay [13] was approximately 0.1 µg/mL.
